Test [1] addresses T1, mouse sFlt-1 (mouse, UniProt P35969 23-759, limits assumed).
T1 construct: also called msFlt-1
T1 sequence (looked up): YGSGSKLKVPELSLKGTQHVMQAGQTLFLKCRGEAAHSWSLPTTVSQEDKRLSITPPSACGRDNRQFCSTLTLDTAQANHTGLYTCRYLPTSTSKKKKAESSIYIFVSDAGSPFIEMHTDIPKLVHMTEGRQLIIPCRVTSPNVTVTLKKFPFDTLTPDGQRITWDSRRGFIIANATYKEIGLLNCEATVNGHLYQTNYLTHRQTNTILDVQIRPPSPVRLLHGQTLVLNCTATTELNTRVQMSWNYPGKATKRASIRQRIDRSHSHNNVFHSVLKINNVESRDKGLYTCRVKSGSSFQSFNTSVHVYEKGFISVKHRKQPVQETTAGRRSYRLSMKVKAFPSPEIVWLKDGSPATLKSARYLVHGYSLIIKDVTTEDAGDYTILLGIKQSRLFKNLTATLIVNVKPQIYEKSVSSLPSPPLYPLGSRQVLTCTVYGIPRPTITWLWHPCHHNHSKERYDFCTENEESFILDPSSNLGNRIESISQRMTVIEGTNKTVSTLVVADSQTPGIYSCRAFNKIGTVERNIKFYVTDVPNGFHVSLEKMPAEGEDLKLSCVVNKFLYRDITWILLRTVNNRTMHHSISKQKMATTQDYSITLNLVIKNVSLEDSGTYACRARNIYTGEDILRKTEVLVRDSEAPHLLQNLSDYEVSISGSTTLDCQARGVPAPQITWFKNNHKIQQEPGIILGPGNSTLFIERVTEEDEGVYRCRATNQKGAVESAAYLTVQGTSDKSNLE
The experiment in a line: SPR (Biacore T200), msFlt-1 captured, PLGF as analyte, 1:1 model. The procedure: (§1) In the capture approach, goat anti-hIgG Fc polyclonal antibody (30 μg/mL in 10 mM acetate buffer, pH 5.0) was immobilized onto a CM5 chip by amine coupling. The immobilization level or surface density of anti-hIgG Fc antibody was controlled between 6000 to 8000 RU. For the kinetic study, sFlt-1-Fc was captured on the surface that was immobilized with the anti-hIgG Fc antibody, before each injection of PLGF variants. The capture level of sFlt-1-Fc (10 μg/mL) was controlled by varying contact time, 10 to 30 seconds, at flow rate 10 μL/min. PLGF variants, as analytes, were serially diluted in HBS-EP+ buffer from 50 to 0.03 nM, and injected to the surface that captured sFlt-1-Fc. The association time for each PLGF variants injection was 300 seconds at 30 μL/min and dissociation time was 600 seconds at the same flow rate. After each round of PLGF variants' injection, a regeneration of […] H3PO4 pH1.8 at 60 μl/min for 90 seconds was performed. The regeneration step effectively removes the complex of sFlt-1-Fc and PLGF variants from the surface that was immobilized with anti-hIgG Fc antibody. A stabilization step was applied for 90 seconds after regeneration.
(§2) The binding characteristics of PLGF variants, PLGF C59A, human WT PLGF and mouse WT PLGF, with msFlt-1 were studied in the mouse model. The same capture approach for hsFlt-1 was used for the msFlt-1.
On the technique in general: SPR reads the build-up and loss of mass on a sensor chip optically.

Test [2] concerns the target T1, mouse sFlt-1. The experiment in a line: SPR (Biacore T200), msFlt-1 captured, 1:1 model; column 'KD (M) Average' of the two runs. The method, then: as §1, §2
The target of test [3] is T2, human sFlt-1-Fc (human, UniProt P17948-2 27-687, limits assumed).
T2 construct: A bought fusion protein; also called hsFlt-1-Fc; hsFlt-1-Fc dimer; not shown: Fc part (captured and detected with anti-human IgG Fc)
T2 sequence (P17948 other isoform, or with tags, fused parts or gaps limits assumed): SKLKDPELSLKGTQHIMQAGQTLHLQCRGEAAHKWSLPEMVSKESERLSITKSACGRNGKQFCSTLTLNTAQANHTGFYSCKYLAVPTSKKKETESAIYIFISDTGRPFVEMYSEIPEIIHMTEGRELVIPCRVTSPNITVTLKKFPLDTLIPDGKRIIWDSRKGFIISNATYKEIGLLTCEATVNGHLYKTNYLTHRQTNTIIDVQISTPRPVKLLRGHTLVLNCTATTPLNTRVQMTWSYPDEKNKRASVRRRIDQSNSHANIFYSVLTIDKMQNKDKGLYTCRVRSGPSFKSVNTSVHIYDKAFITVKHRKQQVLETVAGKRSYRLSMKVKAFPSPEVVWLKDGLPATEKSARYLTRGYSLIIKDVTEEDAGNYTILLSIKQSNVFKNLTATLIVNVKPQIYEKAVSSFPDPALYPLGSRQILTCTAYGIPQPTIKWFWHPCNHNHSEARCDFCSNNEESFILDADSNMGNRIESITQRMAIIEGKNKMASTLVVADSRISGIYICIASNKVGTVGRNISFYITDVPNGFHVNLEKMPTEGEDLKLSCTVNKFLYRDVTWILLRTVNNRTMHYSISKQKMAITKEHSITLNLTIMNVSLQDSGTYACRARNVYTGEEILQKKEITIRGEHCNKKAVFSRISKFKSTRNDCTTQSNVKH
The experiment in a line: SPR (Biacore T200), hsFlt-1-Fc, 1:1 model; column 'KD (M) Average' of the two runs.

In test [4] the target is T2, human sFlt-1-Fc. The experiment in a line: SPR (Biacore T200), hsFlt-1-Fc captured by anti-hIgG Fc, PLGF as analyte, 1:1 model. The procedure:
as §1
Two BIACORE experiment formats, single cycle kinetics and anti-Fc capture approach, were used to study binding characteristic of PLGF variants with hsFlt-1.

The target of test [5] is T2, human sFlt-1-Fc. The experiment in a line: SPR (Biacore T200), hsFlt-1-Fc captured by anti-hIgG Fc, PLGF as analyte, 1:1 model; first of the two unlabelled rows for Human WT-PLGF on Human sFlt-1.
In test [6] the target is Flt-1 receptor (plate based assay) (Homo sapiens (Human), UniProt P17948 27-758). The experiment in a line: plate based assay: Flt-1 captured by coated mouse monoclonal anti-Flt-1 antibody, bound PLGF detected with biotinylated goat anti-PLGF antibody and streptavidin-HRP, OD450. The method, then:
A plate based assay was performed to examine the binding of mutant PLGF protein to Flt-1. Briefly, plates were coated with a mouse monoclonal anti-Flt-1 antibody for capture. After washing and blocking steps, 250 ng/ml of Flt-1 receptor was incubated with WT PLGF (0-400,000 pg/ml) or PLGF C59A (0-40,000 pg/ml) in the plate. After further washing steps, bound WT or mutant PLGF were detected using a biotinylated goat anti-PLGF antibody and streptavidin-HRP immunodetection system. PLGF C59A appeared to bind Flt-1 with lower affinity than WT PLGF. (FIG. 1).

In test [7] the target is T2, human sFlt-1-Fc. The experiment in a line: VEGF:sFlt1 inhibition ELISA: binding of human sFlt-1 Fc to immobilized human VEGF in the presence of PLGF, detected with HRP anti-human IgG Fc, normalized to binding without PLGF. The method, then:
Inhibition of binding of VEGF to sFlt-1 by WT PLGF and PLGFC59A was also assessed by ELISA. The addition of recombinant human […] inhibited binding of recombinant VEGF to recombinant human sFlt-1 chimera (FIG. 6). Binding of human sFlt-1 Fc to immobilized human VEGF was quantified by immunodetection with HRP conjugated anti-human IgG Fc. Data were normalized to binding sFlt-1 Fc to VEGF in the absence of PLGF.
Background: ELISA stands for enzyme-linked immunosorbent assay.

Values joined by “and” are separate entries in the source; they are usually repeats but may differ in a detail not shown here. Equal values may be shown once.

Flt-1 receptor (plate based assay), sequence (P17948 27-758 limits assumed): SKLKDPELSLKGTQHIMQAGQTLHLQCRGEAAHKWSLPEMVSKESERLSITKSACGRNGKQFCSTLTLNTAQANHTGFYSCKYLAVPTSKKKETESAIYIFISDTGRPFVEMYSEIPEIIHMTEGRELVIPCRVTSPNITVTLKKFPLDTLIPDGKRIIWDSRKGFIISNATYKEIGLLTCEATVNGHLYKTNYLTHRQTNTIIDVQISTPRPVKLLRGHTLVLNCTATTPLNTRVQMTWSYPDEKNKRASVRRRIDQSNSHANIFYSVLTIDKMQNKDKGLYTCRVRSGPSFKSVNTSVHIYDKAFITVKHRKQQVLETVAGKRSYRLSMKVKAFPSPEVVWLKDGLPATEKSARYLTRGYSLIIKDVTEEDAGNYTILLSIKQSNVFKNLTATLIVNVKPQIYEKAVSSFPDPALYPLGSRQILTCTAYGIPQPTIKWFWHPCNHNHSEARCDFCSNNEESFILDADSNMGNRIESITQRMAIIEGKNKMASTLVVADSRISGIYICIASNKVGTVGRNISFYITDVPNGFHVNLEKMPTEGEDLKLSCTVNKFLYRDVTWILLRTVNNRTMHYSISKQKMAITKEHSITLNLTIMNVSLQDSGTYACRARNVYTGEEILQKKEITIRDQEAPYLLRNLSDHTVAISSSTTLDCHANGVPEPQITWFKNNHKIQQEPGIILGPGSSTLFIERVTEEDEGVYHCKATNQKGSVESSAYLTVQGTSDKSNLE

B1: mouse WT PLGF (ligand, UniProt P49764 19-158, looked up)
chain: VHSQGALSAGNNSTEVEVVPFNEVWGRSYCRPMEKLVYILDEYPDEVSHIFSPSCVLLSRCSGCCGDEGLHCVPIKTANITMQILKIPPNRDPHFYVEMTFSQDVLCECRPILETTKAERRKTKGKRKRSRNSQTEEPHP
For the molecule B1, in test [1], the Kd (in general, a measure of binding affinity in units of concentration) was 30.1 pM and 10.9 pM; the koff (usually a measure of how fast the partners let go of each other) was 0.000135 s⁻¹ and 9.69e-05 s⁻¹; the kon – broadly, a measure of how fast the partners come together – is 4.49e+06 M⁻¹ s⁻¹ and 8.86e+06 M⁻¹ s⁻¹. This molecule also gave a Kd in test [2] of 20.5 pM.

B2: wild-type human PLGF protein (ligand)
chain: LPAVPPQQWALSAGNGSSEVEVVPFQEVWGRSYCRALERLVDVVSEYPSEVEHMFSPSCVSLLRCTGCCGDENLHCVPVETANVTMQLLKIRSGDRPSYVELTFSQHVRCECRPLREKMKPERCGDAVPRR
notes: also called WT PLGF; Human WT-PLGF
For B2, the koff in test [1] was 0.000243 s⁻¹ and 0.000152 s⁻¹; in test [4], 6.03e-05 s⁻¹ and 8.86e-05 s⁻¹. Further, the kon in test [1] is 2.73e+06 M⁻¹ s⁻¹ and 6.36e+06 M⁻¹ s⁻¹; in test [4], 1.61e+06 M⁻¹ s⁻¹; in test [5], 2.33e+06 M⁻¹ s⁻¹. Moreover, the Kd was 40.5 pM in test [3]; 25.9 pM and 55.1 pM in test [4]; 56.5 pM in test [2]. The EC50 (read off the curve) – broadly, the concentration that produces a half-maximal response – in test [6] is around 200 pM. In addition, the IC50 (usually the concentration that gives 50% inhibition) in test [7] worked out at 4590 pM.
